{"source": "patent US12710427B2", "about": "“Anti-human neurotensin receptor 1 antibody and use thereof” (National Health Research Institutes, priority 2020, dated 2026)", "molecules": {"B1": {"name": "7C3: anti-human NTSR1 antibody with VH SEQ ID NO: 1 and VL SEQ ID NO: 2, full-length IgG with human IgG1 constant domains (antibody, V domains shown)", "VH": "QVQLQQPGSVLVRPGASVKLSCKASGYTFTSSWIHWAKQRPGQGLEWIGQIRPNSGNTYYNEKFKVKATLTVDTSSSTAYVDLSSLTSEDSAVYYCARYYYGFDYWGQGTLVTVSS", "VL": "DVLMTQTPLSLPVSLGDQASISCRSSQSIVHSNGNTYLEWYLQKPGQSPKLLIYKVSNRFSGVPDRFSGSGSGTDFTLKISRVEAEDLGVYYCFQGSHLPWTFGGGTKLEIKR", "modifications": "human IgG1 constant domains; VH SEQUENCE; VL SEQUENCE"}, "B2": {"name": "P100A: h7C3-1 variant, P100A in CDR L3 (antibody, V domains shown)", "VH": "B1 VH with Y100H", "VL": "B1 VL with P100A"}, "B3": {"name": "h7C3-1: 7C3 variant bearing Y100H mutation in CDR H3 (antibody, V domains shown)", "VH": "B1 VH with Y100H", "VL": "B1 VL"}, "B4": {"name": "G96A: h7C3-1 variant, G96A in CDR L3 (antibody, V domains shown)", "VH": "B1 VH with Y100H", "VL": "B1 VL with G96A"}, "B5": {"name": "N54A: h7C3-2 variant, N54A in CDR H2 (antibody, V domains shown)", "VH": "B1 VH with N54A, Y100H", "VL": "B1 VL with S97A"}, "B6": {"name": "D104A: h7C3 variant, D104A in CDR H3 (antibody, V domains shown)", "VH": "B1 VH with D104A", "VL": "B1 VL"}, "B7": {"name": "H98A: h7C3-1 variant, H98A in CDR L3 (antibody, V domains shown)", "VH": "B1 VH with Y100H", "VL": "B1 VL with H98A"}, "B8": {"name": "Y105A: h7C3 variant, Y105A in CDR H3 (antibody, V domains shown)", "VH": "B1 VH with Y105A", "VL": "B1 VL"}, "B9": {"name": "L99A: h7C3-1 variant, L99A in CDR L3 (antibody, V domains shown)", "VH": "B1 VH with Y100H", "VL": "B1 VL with L99A"}, "B10": {"name": "h7C3-2: 7C3 variant harboring Y100H mutation in CDR H3 and S97A mutation in CDR L3 (antibody, V domains shown)", "VH": "B1 VH with Y100H", "VL": "B1 VL with S97A"}, "B11": {"name": "h7C3-5: humanized variant; heavy chain SEQ ID NO: 15, light chain SEQ ID NO: 16 (antibody, V domains shown)", "VH": "QVQLVQSGAEVKKPGASVKVSCKASGYAFTSSWIHWVRQAPGQRLEWMGQIRPNSGNTYYNEKFKVRVTITRDTSASTAYMELSSLRSEDTAVYYCARYHYGFDYWGQGTLVTVSS", "VL": "DIVMTQTPLSLSVTPGQPASISCRSSQSIVHSNGNTYLEWYLQKPGQSPQLLIYKVSNRFSGVPDRFSGSGSGTDFTLKISRVEAEDVGVYYCFQGAHLPWTFGGGTKVEIKR", "modifications": "VH SEQUENCE; VL SEQUENCE"}, "B12": {"name": "h7C3-5-MMAE: h7C3-5 conjugated with MMAE via cleavable valine-citrulline linker, average 3.8-4 MMAE per antibody (conjugate)", "VH": "B11 VH", "VL": "B11 VL", "modifications": "non-natural residues", "notes": "h7C3-5 conjugated with MMAE via cleavable valine-citrulline linker, average 3.8-4 MMAE per antibody"}}, "key": {"NTSR1 on A549 cells": {"target": "T1, NTSR1 on A549 cells (Homo sapiens, UniProt P30989)", "T1 construct": "endogenous in cells; host or cells: A549 (NSCLC)", "T1 sequence (P30989 whole entry)": "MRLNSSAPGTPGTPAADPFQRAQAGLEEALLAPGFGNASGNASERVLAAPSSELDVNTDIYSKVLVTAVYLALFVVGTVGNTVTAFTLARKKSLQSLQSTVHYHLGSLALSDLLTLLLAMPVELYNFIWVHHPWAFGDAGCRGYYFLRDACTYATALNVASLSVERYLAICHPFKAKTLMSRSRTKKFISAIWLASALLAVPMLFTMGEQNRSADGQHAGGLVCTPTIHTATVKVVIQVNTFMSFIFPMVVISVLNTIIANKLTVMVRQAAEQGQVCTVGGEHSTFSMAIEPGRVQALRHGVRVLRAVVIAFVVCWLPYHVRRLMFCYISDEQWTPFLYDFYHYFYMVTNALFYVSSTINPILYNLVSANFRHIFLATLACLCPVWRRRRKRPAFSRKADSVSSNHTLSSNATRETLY", "assay": "Flow cytometry (FACS) binding of anti-NTSR1 antibodies on A549 cells", "conditions": "for FACS binding (%, 1 μg/ml) / FACS binding (%, 10 μg/ml): A549 cells; for FACS binding (%, 1 μg/ml): antibody 1 μg/ml; for FACS binding (%, 10 μg/ml): antibody 10 μg/ml; for EC50: relative mean fluorescence intensity (MFI) on A549 cells; for binding affinity to cell surface NTSR1 compared with h7C3-1: FACS, h7C3-1 variants", "procedure": "A total of 1×10^6 cells were reacted with an anti-NTSR1 antibody in 100 μL of FACS buffer (PBS containing 0.5% BSA) for 60 minutes at 4° C. and washed two times to remove excess antibody. Secondary FITC (BD Pharmingen™) conjugated mouse anti-human IgG antibodies were incubated for an additional 60 minutes on ice. Cells were washed again and followed by an additional incubation with 1 ml PBS containing 0.5 mg/mL propidium iodide at 4° C. for 10 minutes. Data were collected on 10,000 living cells by FACS (Bio-Red S3e cell sorter). Fluorescence intensity from channel FL-1 was calculated with Flow Jo flow […] cytometry analysis software."}, "[1]": {"tested_on": "cyclic ECL2 peptide of NTSR1", "sequence (P30989 206-234 limits assumed)": "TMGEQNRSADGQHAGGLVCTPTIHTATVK", "assay": "NTSR1-binding affinity ELISA (alanine scanning variants)", "parameters": "species or system human", "conditions": "for effect on h7C3 affinity (in words): compared with parental h7C3", "procedure": "The NTSR1-binding capacity of different antibodies were measured by ELISA. Briefly, NeutrAvidin 96-well plates (Pierce Cat:15128) were coated with cyL2-Biotin peptides at a final concentration of 5 μg/ml at […]. On the following day, the coating solution was removed, and the plates were blocked with 5% (v/v) non-fat dry milk in phosphate buffer saline (PBS) for 1 hour. After washing with PBST, gradient concentrations of anti-NTSR1 antibodies were added in triplicate. After 1 hour of incubation, the plate was washed three times with PBST, followed by the addition of horseradish peroxidase (HRP)-conjugated goat anti-human IgG Fc antibody (100 μL) into each well for an additional hour at RT. Finally, 100 μL of tetramethylbenzidine (TMB) substrate was added into each well to produce color for visualization. After 2 minutes of incubation, 100 μL of 2M H2SO4 was used to stop the reaction. The absorbance of each well was read at 450 nm with a plate reader. Flow cytometry"}, "A549": {"tested_on": "A549", "assay": "In vitro cell cytotoxicity assay (CellTiter-Glo)", "type": "cell-based", "procedure": "(§1) The number of living cells were determined using the CellTiter-Glo® Luminescent Cell Viability Assay (Promega G7571). Cells were plated in 96-well opaque Costar plates (Cat number 136101). In brief, 500-2500 cells in 90 μL media were added to each well in quadruplicate and allowed to adhere for 16 hours. Anti-NTSR1 (dose range: 0-500 nM), anti-NTSR1-MMAE (dose range: 0-500 nM) or Paclitaxel (dose range: 0-100 nM) were added in […] 72-120 hours, medium was removed, and 200 μL of CellTiter-Glo® viability reagent contain culture medium (1:1) was added to each well and placed on an orbital shaker in the dark for 2 minutes. The plate was allowed to sit at RT for 10 minutes before being read on a GloMax® Explorer Multimode Microplate Reader (GM3500)."}, "PC-3": {"tested_on": "PC-3", "assay": "In vitro cell cytotoxicity assay (CellTiter-Glo)", "type": "cell-based", "procedure": "as §1"}, "[2]": {"conditions": "alanine scanning of CDR L3 of h7C3-1"}}, "note": "Where a chain is given by its changes, count along the chain named. Names may count otherwise."}
{"molecule": "B1", "values": [{"measurement": "binding to A549 cells", "setting": "NTSR1 on A549 cells; 10 μg/ml, flow cytometry", "value": "strong binding"}, {"measurement": "FACS binding (%, 1 μg/ml)", "setting": "NTSR1 on A549 cells", "value": 16.8, "unit": "%"}, {"measurement": "FACS binding (%, 10 μg/ml)", "setting": "NTSR1 on A549 cells", "value": 83.2, "unit": "%"}, {"measurement": "EC50", "setting": "NTSR1 on A549 cells", "value": "11.3 ± 2.8", "unit": "µg/mL"}]}
{"molecule": "B2", "values": [{"measurement": "binding affinity to cell surface NTSR1 compared with h7C3-1", "setting": "NTSR1 on A549 cells", "value": "significantly diminished"}, {"measurement": "effect on h7C3-1 affinity for peptide (in words)", "setting": "[1]; [2]", "value": "no effect"}]}
{"molecule": "B3", "values": [{"measurement": "FACS binding (%, 1 μg/ml)", "setting": "NTSR1 on A549 cells", "value": 41, "unit": "%"}, {"measurement": "FACS binding (%, 10 μg/ml)", "setting": "NTSR1 on A549 cells", "value": 93.1, "unit": "%"}, {"measurement": "EC50", "setting": "NTSR1 on A549 cells", "value": "7.6 ± 1.7", "unit": "µg/mL"}, {"measurement": "effect on h7C3 affinity (in words)", "setting": "[1]", "value": "higher affinity"}]}
{"molecule": "B4", "values": [{"measurement": "binding affinity to cell surface NTSR1 compared with h7C3-1", "setting": "NTSR1 on A549 cells", "value": "significantly diminished"}, {"measurement": "effect on h7C3-1 affinity for peptide (in words)", "setting": "[1]; [2]", "value": "no effect"}]}
{"molecule": "B5", "values": [{"measurement": "binding affinity to peptide compared with h7C3-2 (in words)", "setting": "[1]; h7C3-2 variants", "value": "higher binding affinity"}]}
{"molecule": "B6", "values": [{"measurement": "effect on h7C3 affinity (in words)", "setting": "[1]", "value": "no effect"}]}
{"molecule": "B7", "values": [{"measurement": "binding affinity to cell surface NTSR1 compared with h7C3-1", "setting": "NTSR1 on A549 cells", "value": "slightly affects"}, {"measurement": "effect on h7C3-1 affinity for peptide (in words)", "setting": "[1]; [2]", "value": "no effect"}]}
{"molecule": "B8", "values": [{"measurement": "effect on h7C3 affinity (in words)", "setting": "[1]", "value": "no effect"}]}
{"molecule": "B9", "values": [{"measurement": "decrease of h7C3-1 affinity", "setting": "[1]; [2]", "value": 70, "unit": "%"}]}
{"molecule": "B10", "values": [{"measurement": "FACS binding (%, 1 μg/ml)", "setting": "NTSR1 on A549 cells", "value": 86.0, "unit": "%"}, {"measurement": "FACS binding (%, 10 μg/ml)", "setting": "NTSR1 on A549 cells", "value": 99.5, "unit": "%"}, {"measurement": "binding affinity to cell surface NTSR1 compared with h7C3-1", "setting": "NTSR1 on A549 cells", "value": "higher affinity"}, {"measurement": "EC50", "setting": "NTSR1 on A549 cells", "value": "1.5 ± 0.5", "unit": "µg/mL"}, {"measurement": "effect on h7C3-1 affinity for peptide (in words)", "setting": "[1]; [2]", "value": "no effect"}]}
{"molecule": "B11", "values": [{"measurement": "IC50", "setting": "A549", "value": "> 500", "unit": "nM"}, {"measurement": "IC50", "setting": "PC-3", "value": "> 500", "unit": "nM"}]}
{"molecule": "B12", "values": [{"measurement": "IC50", "setting": "A549", "value": "33.1 ± 1.72", "unit": "nM"}, {"measurement": "IC50", "setting": "PC-3", "value": "56.5 ± 7.1", "unit": "nM"}]}
